According to paper PMC4552821 (2015):
Read-outs that look alike come from different tables or passages of the source.

Key:
[1] = target: T1, kerateine (reduced hair keratin extract) (Homo sapiens, UniProt Q15323); experiment: SPR
[2] = target: T1, kerateine (reduced hair keratin extract); experiment: SPR; remark: listed apart in the source

Kd [1]: 0.11 µM
Kd [2]: 32 µM
B1: BMP-2 (protein)
chain: QAKHKQRKRLKSSCKRHPLYVDFSDVGWNDWIVAPPGYHAFYCHGECPFPLADHLNSTNHAIVQTLVNSVNSKIPKACCVPTELSAISMLYLDENEKVVLKNYQDMVVEGCGCR
